Laboratory results published in patent US20150147336A1.

Columns and labels:
[1] = target: IFNα2a (human) (UniProt P01563); assay: cell-based or functional assay
[2] = target: human leukocyte IFN; assay: cell-based or functional assay

MEDI-545 (antibody)
HERC5 gene expression (TAQMAN, Average) in whole blood of donor 107 with 100 IU IFNα2a + MEDI-545; same donor VEH 1.00, IFN alone 41.12 (relative expression (Average)) [1]: 6.29 | HERC5 gene expression (TAQMAN, Average) in whole blood of donor 163 with 100 IU IFNα2a + MEDI-545; same donor VEH 1.05, IFN alone 75.81 (relative expression (Average)) [1]: 7.83 | HERC5 gene expression (TAQMAN, Average) in whole blood of donor 175 with 100 IU IFNα2a + MEDI-545; same donor VEH 1.19, IFN alone 74.58 (relative expression (Average)) [1]: 6.89 | IFN α2a-induced IFIT1 gene expression in whole blood (TAQMAN), sample 107 IFN + 545 (107 IFN 80.21; 107 VEH 1.00) (relative expression (Average)) [1]: 13.1 | IFN α2a-induced IFIT1 gene expression in whole blood (TAQMAN), sample 163 IFN + 545 (163 IFN 51.65; 163 VEH 0.92) (relative expression (Average)) [1]: 7.6 | IFN α2a-induced IFIT1 gene expression in whole blood (TAQMAN), sample 175 IFN + 545 (175 IFN 82.98; 175 VEH 1.47) (relative expression (Average)) [1]: 8.4 | IFN α2a-induced IFIT3 gene expression in whole blood (TAQMAN), sample 107 IFN + 545 (107 IFN 38.43; 107 VEH 1.00) (relative expression (Average)) [1]: 6.78 | IFN α2a-induced IFIT3 gene expression in whole blood (TAQMAN), sample 163 IFN + 545 (163 IFN 25.94; 163 VEH 0.62) (relative expression (Average)) [1]: 4.58 | IFN α2a-induced IFIT3 gene expression in whole blood (TAQMAN), sample 175 IFN + 545 (175 IFN 35.02; 175 VEH 1.32) (relative expression (Average)) [1]: 5.28 | IFN α2a-induced IL6ST gene expression in whole blood (TAQMAN), sample 107 IFN + 545 (107 IFN 3.54; 107 VEH 1.00) (relative expression (Average)) [1]: 2.62 | IFN α2a-induced IL6ST gene expression in whole blood (TAQMAN), sample 163 IFN + 545 (163 IFN 7.69; 163 VEH 2.50) (relative expression (Average)) [1]: 4.18 | IFN α2a-induced IL6ST gene expression in whole blood (TAQMAN), sample 175 IFN + 545 (175 IFN 7.62; 175 VEH 1.37) (relative expression (Average)) [1]: 2.95 | IFN α2a-induced IRF7 gene expression in whole blood (TAQMAN), sample 107 IFN + 545 (107 IFN 18.53; 107 VEH 1.00) (relative expression (Average)) [1]: 3.42 | IFN α2a-induced IRF7 gene expression in whole blood (TAQMAN), sample 163 IFN + 545 (163 IFN 17.16; 163 VEH 0.91) (relative expression (Average)) [1]: 2.92 | IFN α2a-induced IRF7 gene expression in whole blood (TAQMAN), sample 175 IFN + 545 (175 IFN 24.65; 175 VEH 1.25) (relative expression (Average)) [1]: 2.43 | IFN α2a-induced LY6E gene expression in whole blood (TAQMAN), sample 107 IFN + 545 (107 IFN 19.09; 107 VEH 1.00) (relative expression (Average)) [1]: 3.5 | IFN α2a-induced LY6E gene expression in whole blood (TAQMAN), sample 163 IFN + 545 (163 IFN 13.52; 163 VEH 1.02) (relative expression (Average)) [1]: 4.8 | IFN α2a-induced LY6E gene expression in whole blood (TAQMAN), sample 175 IFN + 545 (175 IFN 19.32; 175 VEH 1.61) (relative expression (Average)) [1]: 3.74 | IFN α2a-induced MARCKS gene expression in whole blood (TAQMAN), sample 163 IFN + 545 (163 IFN 2.59; 163 VEH 0.56) (relative expression (Average)) [1]: 1.55 | IFN α2a-induced MARCKS gene expression in whole blood (TAQMAN), sample 175 IFN + 545 (175 IFN 2.59; 175 VEH 0.41) (relative expression (Average)) [1]: 0.55 | IFN α2a-induced RAB8B gene expression in whole blood (TAQMAN), sample 163 IFN + 545 (163 IFN 2.20; 163 VEH 0.70) (relative expression (Average)) [1]: 1.18 | IFN α2a-induced RAB8B gene expression in whole blood (TAQMAN), sample 175 IFN + 545 (175 IFN 2.63; 175 VEH 0.64) (relative expression (Average)) [1]: 1.15 | OAS1 gene expression (TAQMAN, Average) in whole blood of donor 107 with 100 IU IFNα2a + MEDI-545; same donor VEH 1.00, IFN alone 15.11 (relative expression (Average)) [1]: 3.45 | OAS1 gene expression (TAQMAN, Average) in whole blood of donor 163 with 100 IU IFNα2a + MEDI-545; same donor VEH 0.77, IFN alone 14.19 (relative expression (Average)) [1]: 3.05 | OAS1 gene expression (TAQMAN, Average) in whole blood of donor 175 with 100 IU IFNα2a + MEDI-545; same donor VEH 1.62, IFN alone 22.09 (relative expression (Average)) [1]: 4.04 | OAS3 gene expression (TAQMAN, Average) in whole blood of donor 107 with 100 IU IFNα2a + MEDI-545; same donor VEH 1.00, IFN alone 49.04 (relative expression (Average)) [1]: 7.03 | OAS3 gene expression (TAQMAN, Average) in whole blood of donor 163 with 100 IU IFNα2a + MEDI-545; same donor VEH 0.49, IFN alone 42.01 (relative expression (Average)) [1]: 14.6 | OAS3 gene expression (TAQMAN, Average) in whole blood of donor 175 with 100 IU IFNα2a + MEDI-545; same donor VEH 1.27, IFN alone 37.87 (relative expression (Average)) [1]: 3.92 | RSAD2 gene expression (TAQMAN, Average) in whole blood of donor 107 with 100 IU IFNα2a + MEDI-545; same donor VEH 1.00, IFN alone 109.64 (relative expression (Average)) [1]: 9.88 | RSAD2 gene expression (TAQMAN, Average) in whole blood of donor 163 with 100 IU IFNα2a + MEDI-545; same donor VEH 0.56, IFN alone 71.47 (relative expression (Average)) [1]: 4.39 | RSAD2 gene expression (TAQMAN, Average) in whole blood of donor 175 with 100 IU IFNα2a + MEDI-545; same donor VEH 1.88, IFN alone 126.27 (relative expression (Average)) [1]: 8.43 | neutralization of overexpression of ISG15, USP18 and IFIT2 in keratinocytes stimulated with 150 I.U./mL leukocyte IFN [2]: 70 to 100%

R347 (antibody)
HERC5 gene expression (TAQMAN, Average) in whole blood of donor 107 with 100 IU IFNα2a + R347 control Ab; same donor VEH 1.00, IFN alone 41.12 (relative expression (Average)) [1]: 55 | HERC5 gene expression (TAQMAN, Average) in whole blood of donor 163 with 100 IU IFNα2a + R347 control Ab; same donor VEH 1.05, IFN alone 75.81 (relative expression (Average)) [1]: 95.4 | HERC5 gene expression (TAQMAN, Average) in whole blood of donor 175 with 100 IU IFNα2a + R347 control Ab; same donor VEH 1.19, IFN alone 74.58 (relative expression (Average)) [1]: 98.2 | IFN α2a-induced IFIT1 gene expression in whole blood (TAQMAN), sample 107 IFN + R347 (107 IFN 80.21; 107 VEH 1.00) (relative expression (Average)) [1]: 86.4 | IFN α2a-induced IFIT1 gene expression in whole blood (TAQMAN), sample 163 IFN + R3437 (163 IFN 51.65; 163 VEH 0.92) (relative expression (Average)) [1]: 86.6 | IFN α2a-induced IFIT3 gene expression in whole blood (TAQMAN), sample 107 IFN + R347 (107 IFN 38.43; 107 VEH 1.00) (relative expression (Average)) [1]: 42.6 | IFN α2a-induced IFIT3 gene expression in whole blood (TAQMAN), sample 163 IFN + R3437 (163 IFN 25.94; 163 VEH 0.62) (relative expression (Average)) [1]: 44.8 | IFN α2a-induced IFIT3 gene expression in whole blood (TAQMAN), sample 175 IFN + R347 (175 IFN 35.02; 175 VEH 1.32) (relative expression (Average)) [1]: 29.7 | IFN α2a-induced IL6ST gene expression in whole blood (TAQMAN), sample 107 IFN + R347 (107 IFN 3.54; 107 VEH 1.00) (relative expression (Average)) [1]: 8.19 | IFN α2a-induced IL6ST gene expression in whole blood (TAQMAN), sample 163 IFN + R3437 (163 IFN 7.69; 163 VEH 2.50) (relative expression (Average)) [1]: 13.2 | IFN α2a-induced IL6ST gene expression in whole blood (TAQMAN), sample 175 IFN + R347 (175 IFN 7.62; 175 VEH 1.37) (relative expression (Average)) [1]: 23.9 | IFN α2a-induced IRF7 gene expression in whole blood (TAQMAN), sample 107 IFN + R347 (107 IFN 18.53; 107 VEH 1.00) (relative expression (Average)) [1]: 19.5 | IFN α2a-induced IRF7 gene expression in whole blood (TAQMAN), sample 163 IFN + R3437 (163 IFN 17.16; 163 VEH 0.91) (relative expression (Average)) [1]: 23.3 | IFN α2a-induced IRF7 gene expression in whole blood (TAQMAN), sample 175 IFN + R347 (175 IFN 24.65; 175 VEH 1.25) (relative expression (Average)) [1]: 26.3 | IFN α2a-induced LY6E gene expression in whole blood (TAQMAN), sample 107 IFN + R347 (107 IFN 19.09; 107 VEH 1.00) (relative expression (Average)) [1]: 12.5 | IFN α2a-induced LY6E gene expression in whole blood (TAQMAN), sample 163 IFN + R3437 (163 IFN 13.52; 163 VEH 1.02) (relative expression (Average)) [1]: 22.6 | IFN α2a-induced LY6E gene expression in whole blood (TAQMAN), sample 175 IFN + R347 (175 IFN 19.32; 175 VEH 1.61) (relative expression (Average)) [1]: 15.6 | IFN α2a-induced MARCKS gene expression in whole blood (TAQMAN), sample 107 IFN + R347 (107 FN 3.97; 107 VEH 1.00) (relative expression (Average)) [1]: 2.99 | IFN α2a-induced MARCKS gene expression in whole blood (TAQMAN), sample 163 IFN + R3437 (163 IFN 2.59; 163 VEH 0.56) (relative expression (Average)) [1]: 4.42 | IFN α2a-induced MARCKS gene expression in whole blood (TAQMAN), sample 175 IFN + R347 (175 IFN 2.59; 175 VEH 0.41) (relative expression (Average)) [1]: 3.38 | IFN α2a-induced RAB8B gene expression in whole blood (TAQMAN), sample 107 IFN + R347 (107 IFN 3.45; 107 VEH 1.0) (relative expression (Average)) [1]: 3.15 | IFN α2a-induced RAB8B gene expression in whole blood (TAQMAN), sample 163 IFN + R3437 (163 IFN 2.20; 163 VEH 0.70) (relative expression (Average)) [1]: 3.71 | IFN α2a-induced RAB8B gene expression in whole blood (TAQMAN), sample 175 IFN + R347 (175 IFN 2.63; 175 VEH 0.64) (relative expression (Average)) [1]: 2.51 | OAS1 gene expression (TAQMAN, Average) in whole blood of donor 107 with 100 IU IFNα2a + R347 control Ab; same donor VEH 1.00, IFN alone 15.11 (relative expression (Average)) [1]: 17.8 | OAS1 gene expression (TAQMAN, Average) in whole blood of donor 163 with 100 IU IFNα2a + R347 control Ab; same donor VEH 0.77, IFN alone 14.19 (relative expression (Average)) [1]: 22.4 | OAS1 gene expression (TAQMAN, Average) in whole blood of donor 175 with 100 IU IFNα2a + R347 control Ab; same donor VEH 1.62, IFN alone 22.09 (relative expression (Average)) [1]: 15.2 | OAS3 gene expression (TAQMAN, Average) in whole blood of donor 107 with 100 IU IFNα2a + R347 control Ab; same donor VEH 1.00, IFN alone 49.04 (relative expression (Average)) [1]: 76.9 | OAS3 gene expression (TAQMAN, Average) in whole blood of donor 163 with 100 IU IFNα2a + R347 control Ab; same donor VEH 0.49, IFN alone 42.01 (relative expression (Average)) [1]: 52.6 | OAS3 gene expression (TAQMAN, Average) in whole blood of donor 175 with 100 IU IFNα2a + R347 control Ab; same donor VEH 1.27, IFN alone 37.87 (relative expression (Average)) [1]: 34.9 | RSAD2 gene expression (TAQMAN, Average) in whole blood of donor 107 with 100 IU IFNα2a + R347 control Ab; same donor VEH 1.00, IFN alone 109.64 (relative expression (Average)) [1]: 107 | RSAD2 gene expression (TAQMAN, Average) in whole blood of donor 163 with 100 IU IFNα2a + R347 control Ab; same donor VEH 0.56, IFN alone 71.47 (relative expression (Average)) [1]: 115 | RSAD2 gene expression (TAQMAN, Average) in whole blood of donor 175 with 100 IU IFNα2a + R347 control Ab; same donor VEH 1.88, IFN alone 126.27 (relative expression (Average)) [1]: 91
